{
  "source": "patent US20250235501A1",
  "about": "“Methods and Compositions for Treating or Preventing Neurological Injury or Neurological Disorders” (University of Connecticut, priority 2024, published 2025)",
  "key": {"[1]": {"target": "T1, NMDARs (Mus musculus, UniProt P35436+Q01097)", "T1 construct": "from tissue; host or cells: mouse brain, membrane protein extract 24 h after MCAO or sham", "T1 sequence (P35436 20-1464 limits assumed, other chains not shown)": "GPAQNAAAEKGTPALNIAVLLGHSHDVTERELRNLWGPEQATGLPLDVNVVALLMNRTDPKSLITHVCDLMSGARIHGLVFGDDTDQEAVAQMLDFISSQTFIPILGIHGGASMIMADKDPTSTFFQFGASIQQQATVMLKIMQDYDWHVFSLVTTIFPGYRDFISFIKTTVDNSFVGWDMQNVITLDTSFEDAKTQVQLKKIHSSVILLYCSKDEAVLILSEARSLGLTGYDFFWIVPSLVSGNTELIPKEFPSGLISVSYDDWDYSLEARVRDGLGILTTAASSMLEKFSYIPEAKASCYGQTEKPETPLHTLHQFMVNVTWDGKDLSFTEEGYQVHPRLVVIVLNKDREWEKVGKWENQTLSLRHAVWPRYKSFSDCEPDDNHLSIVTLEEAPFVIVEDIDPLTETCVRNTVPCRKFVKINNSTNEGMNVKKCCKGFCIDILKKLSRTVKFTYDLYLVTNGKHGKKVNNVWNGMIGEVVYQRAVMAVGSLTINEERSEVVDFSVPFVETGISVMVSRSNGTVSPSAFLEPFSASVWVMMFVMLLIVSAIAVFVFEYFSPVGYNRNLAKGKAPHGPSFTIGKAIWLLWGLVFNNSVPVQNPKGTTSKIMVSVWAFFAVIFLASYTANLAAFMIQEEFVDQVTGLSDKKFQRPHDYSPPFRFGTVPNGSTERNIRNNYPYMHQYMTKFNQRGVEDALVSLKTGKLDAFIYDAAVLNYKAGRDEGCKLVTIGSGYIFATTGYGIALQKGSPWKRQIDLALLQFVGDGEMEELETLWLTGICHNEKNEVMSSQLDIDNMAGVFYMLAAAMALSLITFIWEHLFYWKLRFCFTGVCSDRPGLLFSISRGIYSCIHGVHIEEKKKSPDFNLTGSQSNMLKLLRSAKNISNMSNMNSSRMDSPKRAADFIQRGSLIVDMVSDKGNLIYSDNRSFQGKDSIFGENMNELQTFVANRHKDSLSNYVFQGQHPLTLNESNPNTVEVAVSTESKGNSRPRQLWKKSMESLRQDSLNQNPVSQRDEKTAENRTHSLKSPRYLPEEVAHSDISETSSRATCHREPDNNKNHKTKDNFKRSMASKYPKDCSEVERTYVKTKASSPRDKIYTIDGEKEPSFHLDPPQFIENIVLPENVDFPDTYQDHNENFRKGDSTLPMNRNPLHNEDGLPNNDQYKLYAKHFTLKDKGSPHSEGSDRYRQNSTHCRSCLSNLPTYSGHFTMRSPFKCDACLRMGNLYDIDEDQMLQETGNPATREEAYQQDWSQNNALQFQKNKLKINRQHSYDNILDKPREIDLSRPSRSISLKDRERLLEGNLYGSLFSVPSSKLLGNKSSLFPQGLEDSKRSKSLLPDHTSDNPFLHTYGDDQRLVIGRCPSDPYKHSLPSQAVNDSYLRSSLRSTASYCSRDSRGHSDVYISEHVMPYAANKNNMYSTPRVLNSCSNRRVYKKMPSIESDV", "T1 sequence (Q01097 27-1482, other chains not shown)": "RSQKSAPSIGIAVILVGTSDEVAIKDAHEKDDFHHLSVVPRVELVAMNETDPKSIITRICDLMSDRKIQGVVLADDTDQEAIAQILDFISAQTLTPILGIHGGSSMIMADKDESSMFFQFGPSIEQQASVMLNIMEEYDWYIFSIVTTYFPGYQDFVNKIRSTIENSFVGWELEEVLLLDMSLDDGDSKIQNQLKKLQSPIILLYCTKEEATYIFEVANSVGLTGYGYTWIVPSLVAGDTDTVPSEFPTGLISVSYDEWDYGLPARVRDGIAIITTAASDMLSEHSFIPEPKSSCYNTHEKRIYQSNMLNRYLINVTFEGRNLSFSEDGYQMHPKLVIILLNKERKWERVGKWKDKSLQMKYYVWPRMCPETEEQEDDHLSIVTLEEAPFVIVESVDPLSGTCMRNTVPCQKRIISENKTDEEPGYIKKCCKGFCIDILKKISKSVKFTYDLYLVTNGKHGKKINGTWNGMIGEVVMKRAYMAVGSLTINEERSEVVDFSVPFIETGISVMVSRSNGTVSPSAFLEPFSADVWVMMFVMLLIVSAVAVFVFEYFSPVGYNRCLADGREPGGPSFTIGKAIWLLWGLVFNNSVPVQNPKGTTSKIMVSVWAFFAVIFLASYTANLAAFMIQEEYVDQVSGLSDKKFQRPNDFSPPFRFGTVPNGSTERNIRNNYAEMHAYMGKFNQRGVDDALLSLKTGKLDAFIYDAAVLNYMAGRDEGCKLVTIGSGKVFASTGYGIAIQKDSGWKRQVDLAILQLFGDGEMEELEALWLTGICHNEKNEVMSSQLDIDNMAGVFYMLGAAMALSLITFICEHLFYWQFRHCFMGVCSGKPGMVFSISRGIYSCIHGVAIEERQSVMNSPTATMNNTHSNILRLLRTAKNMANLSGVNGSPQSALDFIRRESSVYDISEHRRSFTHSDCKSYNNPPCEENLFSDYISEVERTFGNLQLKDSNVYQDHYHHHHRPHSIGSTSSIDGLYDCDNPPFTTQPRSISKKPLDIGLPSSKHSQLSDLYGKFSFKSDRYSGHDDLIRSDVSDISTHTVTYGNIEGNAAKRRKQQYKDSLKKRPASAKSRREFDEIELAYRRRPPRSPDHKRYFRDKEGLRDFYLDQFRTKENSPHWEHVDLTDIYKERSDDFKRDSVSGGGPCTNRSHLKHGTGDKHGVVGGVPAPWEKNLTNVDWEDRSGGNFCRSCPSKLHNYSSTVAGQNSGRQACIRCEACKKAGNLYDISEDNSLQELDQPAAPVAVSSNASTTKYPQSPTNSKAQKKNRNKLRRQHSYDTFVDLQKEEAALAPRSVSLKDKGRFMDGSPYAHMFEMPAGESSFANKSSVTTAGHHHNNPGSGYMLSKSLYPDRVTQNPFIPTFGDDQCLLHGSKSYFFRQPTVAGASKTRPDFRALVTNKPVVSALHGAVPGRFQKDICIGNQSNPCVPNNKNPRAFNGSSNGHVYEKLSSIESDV", "assay": "Surface expression of NMDARs in brains of MCAO mice (WB)", "type": "in vivo", "conditions": "100 nmol/kg ip 15 mins before MCAO; 24 hrs after MCAO", "method": "FIGS. 7D and 7E show the effects of TAT-EE3 on surface expression of NMDARs in WT and nM2KO mice 24 hrs after MCAO or sham procedure. TAT-SC and TAT-EE3 were ip administrated (100 nmol/kg) 15 mins before MCAO or sham procedure. FIG. 7D show the WB of surface expression of NMDARs from two representative samples/group. Pan-cadherin was used as loading control. FIG. 7E show the quantification of surface expression of NMDARs normalized to Pan-cadherin (ns, p>0.05; ***, p<0.001; ANOVA, Bonferroni's test; mean±SEM; n=4 mice/group).\nEight-to nine-week-old male mice (˜25 g) were subjected to right middle cerebral artery occlusion (MCAO) for 120 min followed by 24 hours of reperfusion. The genotype information was blinded to the surgeon who conduct the surgeries. […] Mouse body temperature was monitored by a rectal temperature probe and maintained at ˜ 37° C. with an automatic temperature-regulating heating pad connected to animal temperature controller (TCA T-2DF, Physitemp). Cerebral blood flow was monitored after occlusion as well as after reperfusion. […] Successful occlusion was confirmed by 85% reduction of cerebral blood flow monitored by Laser Doppler Flowmetry (LDF) with laser Doppler blood FlowMeter (Moor-VMS-LDF1, Moor Instrument, Dever, UK). […]"}, "[2]": {"tested_on": "NMDARs (GluN1a, GluN2a, GluN2b)", "assay": "Surface expression of NMDARs in HEK293T cells co-transfected with NMDARs and TRPM2 (WB)", "type": "cell-based, human", "conditions": "10 μM peptide overnight; NMDARs/TRPM2 vs NMDARs/EGFP", "method": "FIGS. 4K-4N show the surface expression of NMDARs in HEK-293T cells co-transfected with TRPM2 or EGFP with the treatment of PKC activator PMA (FIG. 4K) and inhibitor Stausporine (FIG. 4L). Membrane (Mem) and cytocol (Cyto) NMDARs were analyzed and averaged from 3 independent experiments with 1 μM PMA treatment (FIG. 4N) or 1 μM Stausporine treatment (FIG. 4L) for overnight. Pan-cadherin and β-tubulin were loading controls for membrane and cytosol protein, respectively (*, p<0.05, **, p<0.01, ***, p<0.001, unpaired t-test, mean±SEM, n=3/group).\nFIGS. 5C-5F effects of TAT-EE3 on surface expression of NMDARs. HEK293T cells co-transfected with NMDARs with TRPM2 (+M2) or EGFP vector (Con) were treated with 10 μM TAT-SC (FIG. 5C) or TAT-EE3 (FIG. 5D) overnight. Membrane (Mem) and cytosol (Cyto) proteins of NMDARs in TAT-SC (FIG. 5E) and TAT-EE3 (FIG. 5F) treated groups were assessed by WBs and analyzed in reference to Pan-cadherin or β-tubulin (**, p<0.01, ***, p<0.001, unpaired t-test, mean±SEM). All the results were replicated in at least 3 independent experiments.\nPan-cadherin and β-tubulin were used as loading control for membrane and cytosolic protein extraction.\nwere ordered from GenScript Biotech, and dissolved in PBS to make a stock concentration at 10 mM. HEK-293T cells or isolated neurons were treated with TAT-SC or TAT-EE3 at a concentration of 10 μM for at least 8 h prior to use. Mice were injected with TAT-SC or TAT-EE3 intraperitoneally (ip) at a dose of 100 nmol/kg.\nHEK293T cells were cultured in Dulbecco's Modified Eagle's medium (DMEM) (Thermal Fisher Scientific, 12100-038) supplemented with 10% BGS (HyClone, SH30541.03) and 0.5% penicillin/streptomycin (Thermal Fisher Scientific, 15140-122) at 37° C. and 5% CO2. 8 h prior to transfection, culture medium was replaced with DMEM supplemented only with 2.5% BGS. Cells were transfected when at a confluence about 80-90% using Lipofectamine® 3000 Transfection Kit (Thermal Fisher Scientific, 2232162) based on instruction.\nNP-40/Triton lysis buffer ([…], 1% Triton™ X-100, 150 mM NaCl, 1 mM EDTA, 50 mM Tris, pH=8.0) containing proteinase inhibitors and phosphatase inhibitors was used to lyse both cultured cells and frozen brain tissue. Surface protein was extracted using Pierce® Cell Surface Protein Isolation Kit (Thermal Fisher Scientific, 89881) in transfected HEK-293T cells, and using ProteoExtract™ Native Membrane Protein Extraction Kit (Calbiochem, 444810) in brain tissue based on instructions. […] Protein concentration was measured using Pierce™ Rapid Gold BCA Protein Assay Kit.\n30-50 μg of total protein was loaded and separated proteins were transferred to Nitrocellulose membranes. […] Band intensity was quantified using ImageJ software and normalized with appropriate loading controls."}},
  "data": [
    {"substance": "TAT-EE3: membrane permeable disrupting peptide, sequence YGRKKRRQRRREEDTDSSEEMLALAEE (SEQ ID NO: 4)", "values": [
      {"measurement": "enhanced surface expression of NMDARs in MCAO mice", "setting": "[1]", "value": "abolished"},
      {"measurement": "enhancement of NMDAR surface expression by TRPM2", "setting": "[2]", "value": "eliminated the enhancement"}
    ]}
  ]
}
